Data from article PMC6698652, “Boundaries of eliminated heterochromatin of Tetrahymena are positioned by the DNA-binding protein Ltl1”.

T1: MBP-Ltl1 (Tetrahymena thermophila) (UniProt I7MGR7)
T1 sequence: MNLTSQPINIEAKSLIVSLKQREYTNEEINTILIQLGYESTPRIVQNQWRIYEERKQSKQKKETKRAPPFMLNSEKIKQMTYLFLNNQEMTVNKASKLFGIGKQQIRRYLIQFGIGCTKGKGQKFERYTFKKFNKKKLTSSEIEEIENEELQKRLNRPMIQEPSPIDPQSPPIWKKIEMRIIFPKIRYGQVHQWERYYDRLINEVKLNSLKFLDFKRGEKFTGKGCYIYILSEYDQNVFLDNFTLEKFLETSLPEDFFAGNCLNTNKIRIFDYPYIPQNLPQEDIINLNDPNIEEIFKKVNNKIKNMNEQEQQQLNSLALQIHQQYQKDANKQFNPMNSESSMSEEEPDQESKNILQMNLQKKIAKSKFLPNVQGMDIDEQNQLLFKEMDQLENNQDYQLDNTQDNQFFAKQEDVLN

T2: MBP-Ltl1 (Tetrahymena thermophila, UniProt I7MGR7 1-417)
T2 sequence: T1 sequence

B1: D IES left flank -70/-120 (IESD_EMSA_L-70/120) (dsDNA)
DNA 1: AAAATTTATATATATTTGAATCCTAAGATTCTGTCTTATTTGATTAATTAA
DNA 2: TTAATTAATCAAATAAGACAGAATCTTAGGATTCAAATATATATAAATTTT
B2: D IES right flank -67/-120 (IESD_EMSA_R-67/120) (dsDNA)
DNA 1: TTTGAATCCTAAGATTCTACTTTATTTAGCATTTTTTATATTAAGTAATTTA
DNA 2: TAAATTACTTAATATAAAAAATGCTAAATAAAGTAGAATCTTAGGATTCAAA
B3: M IES left flank G4 (M1_A5G5_FW) (structured_DNA)
DNA: TTTATTAATCAAAAAGGGGGTAAATAATAA

Key:
[1] = target: T1, MBP-Ltl1 (Tetrahymena thermophila); assay: EMSA; conditions: EMSA as in Carle et al. (ref 20), binding buffer and temperature not given; probes annealed in 10 mM Tris pH 7.5, 5% glycerol, 100 mM KCl; protein dialyzed in …
[2] = target: T2, MBP-Ltl1; assay: EMSA; EMSA as in Carle et al. (ref 20), binding buffer and temperature not given; probes annealed in 10 mM Tris pH 7.5, 5% glycerol, 100 mM KCl; protein dialyzed in 50 mM Tris pH 7.5, 100 mM KCl, 10% glycerol, 1 mM MnSO4, 1 mM MgCl2, 1 mM ZnSO4; conditions: protein: recombinant; MBP (pMAL fusion); label: 5' 32P; blunt
[3] = target: T2, MBP-Ltl1; assay: EMSA; majority of probe in G-quadruplex form; EMSA as in Carle et al. (ref 20), binding buffer and temperature not given; probes annealed in 10 mM Tris pH 7.5, 5% glycerol, 100 mM KCl; protein dialyzed in 50 mM Tris pH 7.5, 100 mM KCl, 10% glycerol, 1 mM MnSO4, 1 mM MgCl2, 1 mM ZnSO4; conditions: protein: recombinant; MBP (pMAL fusion); label: 5' 32P

Row | Molecule | Kd [1] [nM] | Kd [2] [nM] | other results
1 | GAAATTAATATAATTATAATTTTAAACAGTGTAAAACCCAAAAAGCTA (double strand) [R IES left flank -40/-88 ds (R_IES_EMSA_probe2)] | 350 |  | 
2 | TTATTTGATTAATTAATTTTATTTACGGTAAAGGTTTATATATTAAGGCCACAATATAC (double strand) [D IES left flank -30/-88 ds (IESD_EMSA_probe1)] | 350 |  | 
3 | B1 |  | ~43 | 
4 | B2 |  | ~42.5 | 
5 | B3 |  |  | Kd [3]: ~350 nM
